PMC9599826, “Selecting Multitarget Peptides for Alzheimer’s Disease” (Biomolecules, 2022)

Target: Recombinant human TLR4/myeloid differentiation factor 2 (MD-2) complex (human) (UniProt O00206)
Sequence (O00206 24-631, chain 1 of 2): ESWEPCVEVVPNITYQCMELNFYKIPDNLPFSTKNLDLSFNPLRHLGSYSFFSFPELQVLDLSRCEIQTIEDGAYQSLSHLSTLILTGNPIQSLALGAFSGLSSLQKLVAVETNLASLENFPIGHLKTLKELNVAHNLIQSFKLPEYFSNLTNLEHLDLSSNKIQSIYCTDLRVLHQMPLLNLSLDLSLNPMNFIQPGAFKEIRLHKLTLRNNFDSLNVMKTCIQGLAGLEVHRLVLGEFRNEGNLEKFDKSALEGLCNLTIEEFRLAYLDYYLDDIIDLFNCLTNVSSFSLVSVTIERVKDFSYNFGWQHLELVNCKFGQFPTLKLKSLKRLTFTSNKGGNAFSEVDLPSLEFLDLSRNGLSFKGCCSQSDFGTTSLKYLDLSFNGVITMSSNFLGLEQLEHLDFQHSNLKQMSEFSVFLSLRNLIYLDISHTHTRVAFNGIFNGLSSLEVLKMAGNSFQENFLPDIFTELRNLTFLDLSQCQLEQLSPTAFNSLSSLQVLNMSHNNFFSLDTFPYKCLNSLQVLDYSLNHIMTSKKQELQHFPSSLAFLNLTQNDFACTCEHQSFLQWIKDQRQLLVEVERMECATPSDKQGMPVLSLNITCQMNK
Sequence (Q9Y6Y9 19-160, chain 2 of 2, further chain): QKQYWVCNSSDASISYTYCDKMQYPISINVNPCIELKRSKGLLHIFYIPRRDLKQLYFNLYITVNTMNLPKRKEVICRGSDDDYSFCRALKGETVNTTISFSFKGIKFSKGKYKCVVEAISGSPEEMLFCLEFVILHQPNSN

B1: Recombinant human calcium binding protein S100A9 (natural protein)
chain: MTCKMSQLERNIETIINTFHQYSVKLGHPDTLNQGEFKELVRKDLQNFLKKENKNEKVIEHIMEDLDTNADKQLSFEEFIMLMARLTWASHEKMHEGDEGPGHHHKPGLGEGTP
B1 showed an EC50 of TLR4 activation in HEK-Blue hTLR4 reporter cells (SEAP production), S100A9 0.5-50 nM, 24 h of 0.7 nM.
